We go through two substances from US5770396.

The target of assay [1] is rat FcεRI (αβγ2) (rat). Nature of the assay: IgE rosetting assay, cotransfected COS 7 cells; 50 µg/ml rat IgE added 30 minutes before mouse anti-DNP IgE (competitor of mouse anti-DNP IgE).
In assay [2] the target is rat FcεRI (αβγ2) (rat). Put plainly: IgE rosetting assay on cotransfected COS 7 cells.
The target of assay [3] is rat FcεRI (αβγ2) (rat). Put plainly: IgE rosetting assay, COS 7 cells cotransfected with α, β and γ cDNAs (29 transfections).
The target in assay [4] is rat FcεRI (αβγ2) (rat). Nature of the assay: IgE rosetting assay, RBL cells (native rat receptor).
In assay [5] the target is rat FcεRI α subunit (rat). Nature of the assay: IgE rosetting assay, COS 7 cells transfected with α cDNA alone (2 transfections); by the filing α does not reach the surface without β and γ.
Assay [6] deals with COS 7 cells cotransfected with the rat α and β subunits (rat). Put plainly: IgE rosetting assay, COS 7 cells transfected with α and β cDNAs (2 transfections); by the filing no IgE-binding sites reach the surface.

In assay [1], non-specific rat IgE (antibody) gave an IgE Binding (rosettes/cells counted) with inhibitor (rosettes per 7,542 cells counted) of 0.

The substance mouse IgE anti-DNP (antibody) gave an expression of IgE binding (% of cells) in assay [2] of 5%. Also, in assay [3], the IgE Binding (rosettes/cells counted) (rosettes per 41,238 cells counted) was 920. This substance yielded an IgE Binding (rosettes/cells counted) in assay [4] of 100%. The IgE Binding (rosettes/cells counted) (rosettes per 4,050 cells counted) in assay [5] came to 0. This substance also registered an IgE Binding (rosettes/cells counted) (rosettes per 3,504 cells counted) in assay [6] of 0.
